Laboratory results from US20190284266A1.
One block for each substance: values may come before it.

Assays:
[1] = molecular target: hyperphosphorylated human tau P301L (0N4R) of rTg4510 mice, 64 kDa and 70 kDa species (human) (UniProt P10636); assay: binding of pathological versus non-pathological tau, brain material (Table 5)
[2] = molecular target: hyperphosphorylated human tau P301L (0N4R) of rTg4510 mice, 64 kDa and 70 kDa species (human) (UniProt P10636); assay: cell-based or functional assay
[3] = molecular target: hyperphosphorylated (pathological) tau from human Alzheimer's disease brain, phosphorylated at serine 396 (human) (UniProt P10636); assay: MSD fluid phase inhibition of AD-P3 capture, two-site fit
[4] = molecular target: hyperphosphorylated (pathological) tau from human Alzheimer's disease brain, phosphorylated at serine 396 (human) (UniProt P10636); assay: immunodepletion of AD brain extract, pS396 western blot, 75 ng antibody
[5] = molecular target: hyperphosphorylated (pathological) tau from human Alzheimer's disease brain, phosphorylated at serine 396 (human) (UniProt P10636); assay: binding of pathological versus non-pathological tau, brain material (Table 5)
[6] = molecular target: hyperphosphorylated (pathological) tau from human Alzheimer's disease brain, phosphorylated at serine 396 (human) (UniProt P10636); assay: immunodepletion of AD brain extract with antibody-coated beads, pS396 western blot
[7] = molecular target: tau phosphorylated at Serine 422 in Alzheimer's disease brain extract (human) (UniProt P10636); assay: immunodepletion of AD brain extract with antibody-coated beads, P-S422 western blot
[8] = molecular target: tau phosphorylated at Serine 199/202 in Alzheimer's disease brain extract (human) (UniProt P10636); assay: immunodepletion of AD brain extract with antibody-coated beads, P-S199/202 western blot
[9] = molecular target: hyperphosphorylated (pathological) tau from human Alzheimer's disease brain, phosphorylated at serine 396 (human) (UniProt P10636); assay: MSD fluid phase inhibition of Ptau antigen capture on C10-2 coated plate (competitor C10-2); lower end of the printed range 10-20 nM
[10] = molecular target: hyperphosphorylated (pathological) tau from human Alzheimer's disease brain, phosphorylated at serine 396 (human) (UniProt P10636); assay: MSD fluid phase inhibition of Ptau antigen capture on C10-2 coated plate (competitor C10-2); upper end of the printed range 10-20 nM
[11] = molecular target: hyperphosphorylated (pathological) tau from human Alzheimer's disease brain, phosphorylated at serine 396 (human) (UniProt P10636); assay: immunodepletion of AD brain extract with antibody on Protein G magnetic beads; remaining P-S396 tau by western blot, normalised to gapdh
[12] = molecular target: hyperphosphorylated (pathological) tau from human Alzheimer's disease brain, phosphorylated at serine 396 (human) (UniProt P10636); assay: MSD fluid phase inhibition: antibody pre-incubated with AD-P3, capture on coated mouse C10-2 (competitor); two-site fit, low affinity part (predominant); two-site fit, low affinity part (predominant)
[13] = molecular target: hyperphosphorylated (pathological) tau from human Alzheimer's disease brain, phosphorylated at serine 396 (human) (UniProt P10636); assay: MSD fluid phase inhibition: antibody pre-incubated with AD-P3, capture on coated mouse C10-2 (competitor); two-site fit, high affinity part; two-site fit, high affinity part (less than 25% of total binding)
[14] = molecular target: Antibody N32S, A101T; assay: MSD peptide inhibition: 1 ng/ml antibody pre-incubated with graded Ptau 386-408 (pS396), then wells coated with Ptau 386-408 (pS396/pS404) (competitor)
[15] = molecular target: Antibody N32S; assay: as above
[16] = molecular target: total tau of Alzheimer's disease brain extract (human) (UniProt P10636); assay: immunodepletion of AD brain extract with antibody-coated beads, Tau5 western blot
[17] = molecular target: tau phosphorylated at Serine 199/202 in Alzheimer's disease brain extract (human) (UniProt P10636); assay: immunodepletion of AD brain extract with 5 µg antibody on beads, P-S199/202 western blot
[18] = molecular target: total tau of Alzheimer's disease brain extract (human) (UniProt P10636); assay: immunodepletion of AD brain extract with antibody on Protein G magnetic beads; remaining total tau by Tau5 western blot, normalised to gapdh
[19] = molecular target: hyperphosphorylated (pathological) tau from human Alzheimer's disease brain, phosphorylated at serine 396 (human) (UniProt P10636); assay: MSD fluid phase inhibition of Ptau antigen capture on C10-2 coated plate (competitor C10-2)

TG/wt (ratio of binding to transgenic over wild type mouse brain tau) [1]: 51 fold
Substance: HJ8.5 (antibody)

TG/wt (ratio of binding to transgenic over wild type mouse brain tau) [1]: 37 fold
Substance: IPN002 (antibody)

Second part, the substance before the results:

Substance: Anti-Tau Therapeutic Antibody NI-105-4E4
TG/wt (ratio of binding to transgenic over wild type mouse brain tau) [1]: 1 fold

Substance: Antibody C10-2 (humanized C10-2)
decrease in aggregated tau in HEK293 cells expressing hTau-P301L seeded with Tg4510 homogenate pre-incubated with antibody (Cisbio tau aggregation assay) [2]: 40%
reduction of P3 and S1p induced tau seeding in rTg4510 cortical neurons (Cisbio tau aggregation assay) [2]: 23%
share of high affinity binding in the total binding [3]: < 25%
percent decrease in the pS396 signal at 75 ng antibody [4]: < 6%
AD/ctrl (ratio of binding to AD brain tau over control brain tau) [5]: > 100 fold
TG/wt (ratio of binding to transgenic over wild type mouse brain tau) [1]: 118 fold
amount of antibody for half of the max effect [6]: 0.3 µg
max effect, percent of pS396 tau removed [6]: 88%
amount of antibody required to remove 50% of the pS422 tau [7]: 0.27 µg
percent of pS422 tau removed [7]: > 90%
amount of antibody for 50% of the effect [8]: 0.34 µg
percent of pS199/202 tau removed [8]: 69%
IC50 [9]: > 0.01 µM
IC50 [10]: < 0.02 µM
EC50 (read off the curve) [11]: 0.2 µg
IC50 [12]: 0.63 µM
IC50 [13]: 0.014 µM

Substance: Ptau 386-408 (pS396) peptide
IC50 [14]: 0.034 µM
IC50 [15]: 0.05 µM

Substance: 2.10.3 antibody
AD/ctrl (ratio of binding to AD brain tau over control brain tau) [5]: 5 fold
TG/wt (ratio of binding to transgenic over wild type mouse brain tau) [1]: 2 fold
percent of total tau removed [16]: < 24%
amount of antibody for half of the max effect [6]: 0.63 µg
max effect, percent of pS396 tau removed [6]: 60%
percent of pS396 tau removed [6]: 55%
amount of antibody required to remove 50% of the pS422 tau [7]: 0.42 µg
percent of pS422 tau removed [7]: > 90%
max percent reduction of pS199/202 tau [17]: 52%
EC50 (read off the curve) [18]: 0.3 µg

Substance: PHF-13 (antibody)
IC50 [19]: 0.5 to 1 µM
